Patent US20210261643A1, “INHIBITORS OF P-TEFB MEDIATED TRANSCRIPTION” (The Regents of the University of California, priority 2018, published 2021)

Key:
Assay type in all cases: cell-based
[1] = system: CEM, MOLT4, and MT4 T cell lines; assay: Cell growth of T cell lines stably expressing HT1 (total viable cell count); settings: C-HT, MO-HT, MT-HT vs CEM, total viable cell count over time
Procedure: Finally, the impact of HT1 on cell growth was assessed using three T cell lines (CEM, MOLT4, and MT4) infected by a lentivirus expressing a triple Flag-epitope tagged HT1 (3f:HT1). Polyclonal population of HT1-expressing cells (C-HT, MO-HT, and MT-HT, respectively) was selected by puromycin and confirmed by BFP expression detected by FACS analysis and WB. […] This confirmed that HT1 was specific to HIV inhibition, and that the few off-target effects had little impact on the metabolism of the cells.

[2] = system: HEXIM1, a bona fide target of P-TEFb; assay: HEXIM1 mRNA and protein expression in 293T cells; settings: increasing amounts of m:HT1
Text: Since P-TEFb is a major transcription factor and regulates the expression of many cellular genes, we next assessed whether HT1 could impair host cell gene expression through inactivation of the kinase activity of CDK9. We first investigated how HT1 impacted the mRNA and protein expression levels of HEXIM1, a bona fide target of P-TEFb.

[3] = system: Tat-dependent gene expression from the HIV promoter; assay: Luciferase reporter assay, pLTR-Luc co-transfected with pTat and pHT in 293T cells; settings: 293T cells, pHT:pTat ratio 2:1
Text: FIGS. 2A, 2B, and 2C. A HEXIM1-Tat fusion peptide inhibits gene expression from the HIV promoter. FIG. 2A. Structure of the HEXIM1-Tat fusion peptides used in the study. The functional domains used from HEXIM1 and Tat include a HEXIM1 Arginine Rich Motif (ARM, black box, residues 150-162) that binds RNA, a HEXIM1 inhibitory domain (ID, light grey box, residues 200-211) that inhibits CDK9 through a PYNT motif, and Tat transactivation domain (AD, dark grey box, residues 1-48) that binds to P-TEFb. The conceptual schemes are not drawn to scale. FIG. 2B. Transient expression of HT1 inhibits Tat-induced LTR-driven Luc expression. Upper panel: a schema depicts the reporter assay. A luciferase reporter gene (Luc) is under the control of the HIV promoter (P-HIV) and can be activated by ectopically expressed Tat. The Luc assay was used to titrate the inhibitory effect of HT1-3 on P-HIV transactivation by Tat. Middle panel: increasing amounts of m:HT1, m:HT2 or m:HT3 expressing plasmid (pHT) were co-transfected in 293T cells with a plasmid (pTat) expressing f:Tat and another (pLTR-Luc) expressing Luc under the control of the HIV promoter. Luc activity was plotted as % activity relative to control (empty vector used instead of pHT), depending on the transfected pHT:pTat ratio. Error bars in the graph represent standard deviation from triplicate experiments. FIG. 2C. Transient expression of HT1 inhibits Luc expression from HIV-1 NL43ΔenvLuc. Top schema depicts the reporter assay. A luciferase reporter gene (Luc) is inserted in a replication-defective HIV-1 molecular clone (pNL43ΔenvLuc) in which Luc and Tat are under the control of the HIV promoter (P-HIV). A Luc assay was used to titrate the inhibitory effect of HT1-3 on P-HIV transactivation by Tat. Bottom: increasing amounts of pHT1 were co-transfected in 293T cells with pNL43ΔenvLuc. Luc activity was plotted as % activity relative to control (empty vector used instead of pHT), depending on the transfected amounts of pHT1. Error bars in the graph represent standard deviation from triplicate experiments.
Luciferase (Luc) reporter assays were performed to titrate the potency of each chimera to inhibit Tat-dependent gene expression from the HIV promoter. Effector plasmids included pHT1-3 and pTat, which respectively expressed a Myc-epitope tag chimera (m:HT1-3) and a Flag-epitope tagged Tat (f:Tat). pHT1, pHT2 or pHT3 was transiently co-transfected in 293T cells with pTat and a Luc reporter gene under the control of the HIV promoter (P-HIV, expressed from the plasmid pLTR-Luc). […] Finally, HT1 lead to a 4-fold decrease in Luc expression at a 2:1 ratio. […] Similar results were obtained when co-transfecting pHT1-3 and pTat in NIH1 cells, which stably carry an LTR-Luc reporter gene. Thus, we selected HT1 for further investigation.

[4] = system: early steps of HIV infection (HIV-1 NL43ΔenvLuc); assay: Single-round infection with Env-pseudotyped replication-defective HIV, proviral DNA by qPCR; settings: C-HT, MO-HT, MT-HT cells
Text: FIGS. 5A, 5B, 5C, and 5D. Stable expression of HT1 inhibits HIV replication. FIG. 5A. Stable expression of HT1 inhibits HIV-1 replication in C-HT cells. 1E+06 HT1-expressing CEM-HT cells and e control CEM cells were challenged by HIV-1 NL43 infection. FIG. 5B. Stable expression of HT1 inhibits HIV-1 replication in MO-HT cells. 1E+06 HT1-expressing MOLT4-HT cells, and control MOLT4 cells were challenged by HIV-1 NL43 infection. FIG. 5C. Stable expression of HT1 inhibits HIV-1 replication in MT-HT cells. 1E+06 HT1-expressing MT4-HT cells, and control MT4 cells were challenged by HIV-1 NL43 infection. In each of FIGS. 5A, 5B, and 5C, virus production was assessed by Gag p24 ELISA in supernatants when cells were passaged at days 0, 2 and 4, and plotted. Error bars represent standard deviation from triplicate experiments. FIG. 5D: Stable expression of HT1 doesn't inhibit early steps of HIV-1 infection in C-HT, MO-HT, and MT-HT cells. Single-round infection assays were performed in the same conditions as in FIG. 5A-C above, but using replication-defective HXB2 Env-pseudotyped HIV-1 NL43ΔenvLuc. The relative amount of HIV DNA integrated in the cells' genomic DNA was assessed after 24 h by qPCR. […]
On 2 dpi, virus production was detected from CEM, MOLT4 and MT4 cells and reached around 20 (CEM, MT4) to 110 (MOLT4) ng/mL p24 concentration in the supernatant on 4 dpi.

B1: HT1 (protein)
chain: KKKHRRRPSKKKRHWKPYYKLTWEEKKKFDEKQSLRASRIRAEMFAKGQPVAPYNTTQFLMDDHDQEEPDLVDMEPVDPYLEPWKHPGSQPRTACNNCYCKKCCFHCYACFTRKGLGISYG
modifications: left off: small tags and cut ends
[1]
  cellular growth rate versus control cells: no difference
[2]
  expression level of HEXIM1 protein and mRNA: did not change
[3]
  decrease in Luc expression from the HIV promoter: 4 fold
[4]
  early steps of HIV infection (proviral DNA by qPCR): not affected
